Test results from article PMC2883946.

Columns and labels:
14-3-3ε = 14-3-3ε (UniProt P62259); assay: FLAG IP, 14-3-3 isoform immunoblot; settings: reference: FLAG-AS160 wild type; sites S318,T568,S588,T642,S751
14-3-3β = 14-3-3β (UniProt Q9CQV8); assay: FLAG IP, 14-3-3 isoform immunoblot; settings: reference: FLAG-AS160 wild type; sites S318,T568,S588,T642,S751

FLAG-AS160 (from UniProt O60343) FLAG-AS160 5P
binding against the reference (14-3-3ε): weaker
binding against the reference (14-3-3β): weaker
